Reference: patent US20260308269 (published 2026)

T1: human TfR apical domain (human)
T1 chain: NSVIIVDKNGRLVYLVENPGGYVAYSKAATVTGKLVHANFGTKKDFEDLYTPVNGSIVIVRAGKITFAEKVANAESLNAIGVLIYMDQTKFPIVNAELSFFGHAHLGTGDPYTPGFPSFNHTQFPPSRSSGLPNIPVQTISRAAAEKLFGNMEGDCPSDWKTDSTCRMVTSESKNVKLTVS


Target: T1, human TfR apical domain
Assay: SPR

Binder	Kd [µM]
35.d1.12 (protein) ASTKGPSVFPLAPSSKSTSGGTAALGCLVKDYFPEPVTVSWNSGALTSGVHTFPAVLQSSGLYSLSSVVTVPSSSLGTQTYICNVNHKPSNTKVDKKVEPKSCDKTHTCPPCPAPELLGGPSVFLFPPKPKDTLMISRTPEVTCVVVDVSHEDPEVKFNWYVDGVEVHNAKTKPREEQYNSTYRVVSVLTVLHQDWLNGKEYKCKVSNKALPAPIEKTISKAKGQPREPQVYTLPPSRDELTKNQVSLTCLVKGFYPSDIAVEWESFGTEWSNYKTTPPVLDSDGSFFLYSKLTVSKSEWQQGFVFSCSVMHEALHNHYTQKSLSLSPELQLEESCAEAQDGELDGLWTT	1.6
35.d1.8 (protein) ASTKGPSVFPLAPSSKSTSGGTAALGCLVKDYFPEPVTVSWNSGALTSGVHTFPAVLQSSGLYSLSSVVTVPSSSLGTQTYICNVNHKPSNTKVDKKVEPKSCDKTHTCPPCPAPELLGGPSVFLFPPKPKDTLMISRTPEVTCVVVDVSHEDPEVKFNWYVDGVEVHNAKTKPREEQYNSTYRVVSVLTVLHQDWLNGKEYKCKVSNKALPAPIEKTISKAKGQPREPQVYTLPPSRDELTKNQVSLTCLVKGFYPSDIAVEWESYGNEWSNYKTTPPVLDSDGSFFLYSKLTVTKSEWQQGFVFSCSVMHEALHNHYTQKSLSLSPELQLEESCAEAQDGELDGLWTT	13.2
35.d1.18 (protein) ASTKGPSVFPLAPSSKSTSGGTAALGCLVKDYFPEPVTVSWNSGALTSGVHTFPAVLQSSGLYSLSSVVTVPSSSLGTQTYICNVNHKPSNTKVDKKVEPKSCDKTHTCPPCPAPELLGGPSVFLFPPKPKDTLMISRTPEVTCVVVDVSHEDPEVKFNWYVDGVEVHNAKTKPREEQYNSTYRVVSVLTVLHQDWLNGKEYKCKVSNKALPAPIEKTISKAKGQPREPQVYTLPPSRDELTKNQVSLTCLVKGFYPSDIAVEWESFGTEWSNYKTTPPVLDSDGSFFLYSKLTVSKSEWQQGYVFSCSVMHEALHNHYTQKSLSLSPELQLEESCAEAQDGELDGLWTT	4.4
35.d1.11 (protein) ASTKGPSVFPLAPSSKSTSGGTAALGCLVKDYFPEPVTVSWNSGALTSGVHTFPAVLQSSGLYSLSSVVTVPSSSLGTQTYICNVNHKPSNTKVDKKVEPKSCDKTHTCPPCPAPELLGGPSVFLFPPKPKDTLMISRTPEVTCVVVDVSHEDPEVKFNWYVDGVEVHNAKTKPREEQYNSTYRVVSVLTVLHQDWLNGKEYKCKVSNKALPAPIEKTISKAKGQPREPQVYTLPPSRDELTKNQVSLTCLVKGFYPSDIAVEWESYGTEWSNYKTTPPVLDSDGSFFLYSKLTVTKSEWQQGYVFSCSVMHEALHNHYTQKSLSLSPELQLEESCAEAQDGELDGLWTT	2.5
35.d1.21 (protein) ASTKGPSVFPLAPSSKSTSGGTAALGCLVKDYFPEPVTVSWNSGALTSGVHTFPAVLQSSGLYSLSSVVTVPSSSLGTQTYICNVNHKPSNTKVDKKVEPKSCDKTHTCPPCPAPELLGGPSVFLFPPKPKDTLMISRTPEVTCVVVDVSHEDPEVKFNWYVDGVEVHNAKTKPREEQYNSTYRVVSVLTVLHQDWLNGKEYKCKVSNKALPAPIEKTISKAKGQPREPQVYTLPPSRDELTKNQVSLTCLVKGFYPSDIAVEWESYGTEWVNYKTTPPVLDSDGSFFLYSKLTVSKSEWQQGYVFSCSVMHEALHNHYTQKSLSLSPELQLEESCAEAQDGELDGLWTT	14.1
35.d1.13 (protein) ASTKGPSVFPLAPSSKSTSGGTAALGCLVKDYFPEPVTVSWNSGALTSGVHTFPAVLQSSGLYSLSSVVTVPSSSLGTQTYICNVNHKPSNTKVDKKVEPKSCDKTHTCPPCPAPELLGGPSVFLFPPKPKDTLMISRTPEVTCVVVDVSHEDPEVKFNWYVDGVEVHNAKTKPREEQYNSTYRVVSVLTVLHQDWLNGKEYKCKVSNKALPAPIEKTISKAKGQPREPQVYTLPPSRDELTKNQVSLTCLVKGFYPSDIAVEWESYGNEWSNYKTTPPVLDSDGSFFLYSKLTVSKSEWQQGFVFSCSVMHEALHNHYTQKSLSLSPELQLEESCAEAQDGELDGLWTT	18.5
